The numbers were not newly measured in PMC2962622, which cites them from elsewhere.

For this data set, the target named is NIFK 44-residue phosphopeptide (Homo sapiens) (UniProt Q9BYG3).
UniProt Q9BYG3, sequence (Q9BYG3 2-293): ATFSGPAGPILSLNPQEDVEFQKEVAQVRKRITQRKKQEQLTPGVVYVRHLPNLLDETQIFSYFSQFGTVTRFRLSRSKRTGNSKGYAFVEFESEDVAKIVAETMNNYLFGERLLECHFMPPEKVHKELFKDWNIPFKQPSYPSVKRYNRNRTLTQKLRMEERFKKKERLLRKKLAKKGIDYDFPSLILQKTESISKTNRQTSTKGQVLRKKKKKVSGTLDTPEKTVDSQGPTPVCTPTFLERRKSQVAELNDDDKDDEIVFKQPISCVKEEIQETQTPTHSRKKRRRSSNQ

For Ki67 FHA (from UniProt P46013), the Kd is 77 nM.
